Data from patent US20160052997A1.
Residue numbers refer to the chain shown, from its start. Values joined by “and” are separate entries in the source; they are usually repeats but may differ in a detail not shown here. Identical values can stand only once. Like-named read-outs stand apart in the source and are kept apart here.

Tests used:
[1] = target: HA of A/Brisbane/10/07 (H3N2) virus (Influenza A virus A/Brisbane/10/07 (H3N2)); assay: cell-based or functional assay
[2] = target: HA of A/Wisconsin/67/05 (H3N2) virus (Influenza A virus A/Wisconsin/67/05 (H3N2)); assay: cell-based or functional assay
[3] = target: HA of A/Hong Kong/68 (H3N2) virus (Influenza A virus A/Hong Kong/68 (H3N2)); assay: cell-based or functional assay
[4] = target: purified recombinant HA protein of H1N1 (A/Ohio/07/09) (Influenza A virus A/Ohio/07/09 (H1N1))
[5] = target: purified recombinant HA protein of H5N1 (A/Vietnam/1203/04) (Influenza A virus A/Vietnam/1203/04 (H5N1)); assay: SPR, Biacore T200, HA captured via anti-6x his tag antibody, 25 C
[6] = target: purified recombinant HA protein of H1N1 (A/Texas/05/09) (Influenza A virus A/Texas/05/09 (H1N1)); assay: as above
[7] = target: purified recombinant HA protein of H1N1 (A/Ohio/07/09) (Influenza A virus A/Ohio/07/09 (H1N1)); assay: as above
[8] = target: purified recombinant HA protein of H5N1 (A/Vietnam/1203/04) (Influenza A virus A/Vietnam/1203/04 (H5N1))
[9] = target: purified recombinant HA protein of H1N1 (A/Texas/05/09) (Influenza A virus A/Texas/05/09 (H1N1))

B1: CT164 (antibody, V domains shown)
VH: QVQLVQSGVEVKKPGASVKVSCKTSGYPFSTYGVSWVRQAPGQGLEWVGWISGYTGITDYAQKSQGRVTLTTDASTATAFLELRSLRPDDTATYFCARDKVQGRVEAGSGGRHDYWGQGTLVIVSS
VL: EVVLTQSPGTLTLPPGDRATLSCRASHSVGSTYIAWFQQKSGQAPRRLIYGASNRATDIPDRFSGSGSGTDFTLTIRRLEPEDSAVYYCQQFSVSPWTFGQGTRVEIKR
MN test: lowest antibody concentration at which no virus antigen was detected [1]: 0.625 µg/mL
MN test: lowest antibody concentration at which no virus antigen was detected [2]: 2.5 µg/mL
MN test: lowest antibody concentration at which no virus antigen was detected [3]: 1.25 µg/mL

B2: CT166 (antibody, V domains shown)
VH: B1 VH with V9A, P28S, S64F, S75T, A107V
VL: B1 VL with T12A, D17E, V29I, F37Y, T57S
MN test: lowest antibody concentration at which no virus antigen was detected [1]: 1.25 µg/mL
MN test: lowest antibody concentration at which no virus antigen was detected [2]: 5 µg/mL
MN test: lowest antibody concentration at which no virus antigen was detected [3]: 2.5 µg/mL

B3: CT120 (antibody, V domains shown)
VH: QVQLVQSGAEVKMPGSSVKVSCKTSGVFFSSHAISWVRQAPGQGLEWMGGISPMFGTTHYAQKFQGRVTITADQSTTTAYMELTSLTSEDTAVYYCARDGAGSYYPLNWFDPWGQGTLVTVSS
VL: EIVLTQSPATLSLSPGERATLSCRASENIWNNLAWYQQKPGQAPRLLISGASTGATGVPSRFRGSGSRTEFTLTISSLQSEDFAIYFCQQYNSWPRTFGPGTKVEIKR
Kd [4]: 2 nM
Kd [5]: 3.74 nM and 4.2 nM
koff [5]: 3.88 s⁻¹
Kd [6]: 1.97 nM and 1.55 nM
koff [6]: 0.00119 s⁻¹ and 0.00098 s⁻¹
kon [6]: 606000 M⁻¹ s⁻¹ and 632000 M⁻¹ s⁻¹
Kd [7]: 1.76 nM and 2.24 nM
koff [7]: 0.000663 s⁻¹ and 0.000789 s⁻¹
kon [7]: 376000 M⁻¹ s⁻¹ and 352000 M⁻¹ s⁻¹
Kd [8]: 3.97 nM
Kd [9]: 1.76 nM
